Source: patent US20240018262A1

Columns and labels:
[1] = molecular target: GPC3 expressed on hepatoma cell line HepG2 (human) (UniProt P51654); assay: flow cytometry on HepG2 cells, secondary antibody alone (background control); median fluorescence
[2] = molecular target: GPC3 expressed on hepatoma cell line HepG2 (human) (UniProt P51654); assay: flow cytometry on HepG2 cells, secondary antibody alone (background control); mean fluorescence

GPC3 expressed on hepatoma cell line HepG2 (human), sequence (P51654 25-554 limits assumed): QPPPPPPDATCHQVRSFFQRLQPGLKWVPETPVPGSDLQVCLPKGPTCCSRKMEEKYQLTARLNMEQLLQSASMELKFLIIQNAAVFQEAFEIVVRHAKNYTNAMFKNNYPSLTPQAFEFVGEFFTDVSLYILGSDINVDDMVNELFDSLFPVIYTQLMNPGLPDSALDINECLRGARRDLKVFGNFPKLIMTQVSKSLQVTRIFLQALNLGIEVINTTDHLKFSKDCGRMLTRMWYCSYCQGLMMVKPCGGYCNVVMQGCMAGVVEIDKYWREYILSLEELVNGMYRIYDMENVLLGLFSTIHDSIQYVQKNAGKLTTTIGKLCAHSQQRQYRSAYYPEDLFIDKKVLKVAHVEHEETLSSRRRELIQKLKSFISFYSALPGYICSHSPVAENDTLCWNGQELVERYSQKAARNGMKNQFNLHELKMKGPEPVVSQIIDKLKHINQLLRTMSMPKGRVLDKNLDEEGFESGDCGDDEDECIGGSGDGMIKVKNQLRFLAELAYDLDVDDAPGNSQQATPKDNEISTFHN

- Median [1]: 205
- Mean [2]: 243
Substance: PE-conjugated goat anti-mouse IgG (Biolegend Inc., cat #405307) (antibody)
